Data from the supplement of paper PMC10724198.
± gives the standard deviation of the averaged measurements.

tested on: Saccharomyces cerevisiae; assay: protein stability index of tFT-peptide fusion (C-terminal peptide) (PSI (0-1 scale)); higher = more stable (slower turnover); conditions: genetic background: wild type; temperature: 37 C
Experimental: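 MPS profiling in S. cerevisiae of the tFT-X12 degron library: putative degron peptides plus stable controls, 12 aa, fused to the C-terminus of a sfGFP-mCherry timer. Cells are FACS-sorted into 8 mCherry/sfGFP bins and deep-sequenced. PSI runs from 0 (unstable) to 1 (stable). Backgrounds are wild type, das1Δ and doa10Δ at 30 °C, and wild type, das1Δ, cdc34-1 and cdc53-1 at 37 °C; 2-3 technical replicates each.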
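Further: PSI is a weighted mean of sequencing reads over stability bins, variants kept only with over 10 reads, mCherry proximal and sfGFP distal, peptide attached via GGGS linker.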

Sequence	protein stability index
LLSFYFVLAYMV	0.3 ± 0.0065
LLSYMVSLVVYL	0.291 ± 0.004
LLYYQVFKTRRL	0.5958 ± 0.0036
LNQRGKRKYLIM	0.561 ± 0.034
LNTVALIRIVVS	0.19 ± 0.008
LPILFPAALRLY	0.455 ± 0.029
LPPPYSPRLFHN	0.265 ± 0.01
LPTVSRPGALIC	0.34 ± 0.038
LRCRAATSRTVS	0.643 ± 0.0087
LRNYKCLRLLIC	0.0753 ± 0.012
LRPTFLLLFRPL	0.4302 ± 0.0023
LRSLLIIYLLIF	0.31 ± 0.012
LSACYSRYVFVS	0.115 ± 0.012
LSASFYFVFFSN	0.383 ± 0.021
LSILLFVQFFPP	0.384 ± 0.0082
LSLPTPLPSPPA	0.591 ± 0.0092
LSPLSPLLFRLI	0.37479 ± 6.6e-05
LSRLIFKVSVLM	0.416 ± 0.038
LSRRFSLALFWT	0.317 ± 0.0078
LSSRGGRCRRLV	0.588 ± 0.017
LVFAFFLLSFFI	0.541 ± 0.02
LVFSFFFLFFFM	0.442 ± 0.11
LVLFYLWSSVWA	0.441 ± 0.0095
LVLLIQKFLTDK	0.675 ± 0.015
LVLSFVMLVSGH	0.343 ± 0.024
LVPVWVGLRVLF	0.506 ± 0.014

Sequence	protein stability index
LVSCGNFLVFCF	0.355 ± 0.0037
LVSSYVPFFFAL	0.388 ± 0.015
LVSVLLLFWFLF	0.475 ± 0.017
LVYCWFAEYFLV	0.0859 ± 0.017
LVYLVCAYSECE	0.477 ± 0.0088
LWCLVWGGVWGV	0.508 ± 0.012
LWFVIYLLCFFV	0.452 ± 0.0078
MFFSWVLSISLT	0.0577 ± 0.011
MIVAIQLVDHPP	0.509 ± 0.034
MLECIIHLTITR	0.491 ± 0.019
MLSVVSFVSCTC	0.237 ± 0.0063
MRVYLVLWADSC	0.337 ± 0.00094
MSIWKIFIWRLG	0.2694 ± 0.00052
MVAHTVRVKCGI	0.6622 ± 0.0012
MVVILLVHWEYV	0.2768 ± 0.0012
MWFFFICYFLSV	0.369 ± 0.0076
MYESIRILVNKV	0.491 ± 0.02
NFCVLLQFCVLV	0.448 ± 0.0074
NFSLFVHFLGLC	0.608 ± 0.025
NNGLLLDILIKA	0.4517 ± 0.0037
NTNITHHSVKLR	0.689 ± 0.036
NVWCWGASCFFC	0.561 ± 0.025
PALLLFLRNLLL	0.542 ± 0.009
PAPANRPTPRPV	0.7517 ± 0.0059
PCVCFIILGMLS	0.52 ± 0.021
PFARIIDILLVI	0.495 ± 0.061

Sequence	protein stability index
PFIPLLLAPALA	0.4205 ± 0.00058
PFPRCRLIFFFM	0.139 ± 0.019
PFRSAYYLLFLL	0.161 ± 0.026
PFVATRVSCFLT	0.4393 ± 0.00057
PHFDLLLCLSLN	0.521 ± 0.016
PHLDLYRLSALI	0.57 ± 0.021
PHPPRPPCPPIL	0.699 ± 0.0093
PHVSALSRDPES	0.701 ± 0.016
PISNMSIILLFL	0.556 ± 0.027
PLFFGVQAFGGV	0.7622 ± 0.0021
PLPCFVLRLPVF	0.4379 ± 0.0024
PLPSEKAPTLLL	0.718 ± 0.0072
PLPSFLYFILLR	0.359 ± 0.044
PLRKYLRHLLSL	0.285 ± 0.0041
PLRRPPPRPPWP	0.687 ± 0.011
PLSPTNLSRLLS	0.526 ± 0.033
PPGSPPGSLRPT	0.703 ± 0.013
PPHRTLLQLRTN	0.313 ± 0.015
PPPAPPLSMPAP	0.6928 ± 0.0055
PPPLCSTCIRCC	0.274 ± 0.013
PPQDQAPVGVND	0.7007 ± 0.0022
PPRCLLPPPSRS	0.678 ± 0.009
PPRDPGGLFTPF	0.767 ± 0.039
PPSPAPLPDSLP	0.696 ± 0.0075
PPSPPLLFHFPP	0.7058 ± 0.007
PPTLLPPLHPAP	0.731 ± 0.023

tested on: Saccharomyces cerevisiae; assay: as above; conditions: genetic background: wild type; temperature: 30 C

Sequence	protein stability index
LLSFYFVLAYMV	0.28 ± 0.056
LLSYMVSLVVYL	0.295 ± 0.0062
LLYYQVFKTRRL	0.406 ± 0.25
LNQRGKRKYLIM	0.452 ± 0.015
LNTVALIRIVVS	0.236 ± 0.006
LPILFPAALRLY	0.44 ± 0.02
LPPPYSPRLFHN	0.241 ± 0.1
LPTVSRPGALIC	0.253 ± 0.013
LRCRAATSRTVS	0.504 ± 0.04
LRNYKCLRLLIC	0.0682 ± 0.096
LRPTFLLLFRPL	0.493 ± 0.096
LRSLLIIYLLIF	0.279 ± 0.039
LSACYSRYVFVS	0.135 ± 0.0089
LSASFYFVFFSN	0.292 ± 0.043
LSILLFVQFFPP	0.305 ± 0.0053
LSLPTPLPSPPA	0.48 ± 0.022
LSPLSPLLFRLI	0.296 ± 0.016
LSRLIFKVSVLM	0.445 ± 0.015
LSRRFSLALFWT	0.279 ± 0.012
LSSRGGRCRRLV	0.481 ± 0.037
LVFAFFLLSFFI	0.425 ± 0.0078
LVFSFFFLFFFM	0.394 ± 0.044
LVLFYLWSSVWA	0.3819 ± 0.0021
LVLLIQKFLTDK	0.553 ± 0.086
LVLSFVMLVSGH	0.289 ± 0.012
LVPVWVGLRVLF	0.421 ± 0.065

Sequence	protein stability index
LVSCGNFLVFCF	0.324 ± 0.0072
LVSSYVPFFFAL	0.342 ± 0.011
LVSVLLLFWFLF	0.394 ± 0.069
LVYCWFAEYFLV	0.169 ± 0.027
LVYLVCAYSECE	0.332 ± 0.02
LWCLVWGGVWGV	0.447 ± 0.009
LWFVIYLLCFFV	0.348 ± 0.029
MFFSWVLSISLT	0.0454 ± 0.021
MIVAIQLVDHPP	0.484 ± 0.044
MLECIIHLTITR	0.483 ± 0.025
MLSVVSFVSCTC	0.255 ± 0.012
MRVYLVLWADSC	0.247 ± 0.058
MSIWKIFIWRLG	0.263 ± 0.019
MVAHTVRVKCGI	0.547 ± 0.13
MVVILLVHWEYV	0.262 ± 0.017
MWFFFICYFLSV	0.263 ± 0.0072
MYESIRILVNKV	0.457 ± 0.052
NFCVLLQFCVLV	0
NFSLFVHFLGLC	0.445 ± 0.052
NNGLLLDILIKA	0.364 ± 0.059
NTNITHHSVKLR	0.727 ± 0.034
NVWCWGASCFFC	0.447 ± 0.023
PALLLFLRNLLL	0.447 ± 0.012
PAPANRPTPRPV	0.7 ± 0.028
PCVCFIILGMLS	0.449 ± 0.012
PFARIIDILLVI	0.41 ± 0.026

Sequence	protein stability index
PFIPLLLAPALA	0.441 ± 0.1
PFPRCRLIFFFM	0.171 ± 0.045
PFRSAYYLLFLL	0.205 ± 0.035
PFVATRVSCFLT	0.414 ± 0.015
PHFDLLLCLSLN	0.366 ± 0.0045
PHLDLYRLSALI	0.47 ± 0.0056
PHPPRPPCPPIL	0.74 ± 0.019
PHVSALSRDPES	0.716 ± 0.018
PISNMSIILLFL	0.48 ± 0.04
PLFFGVQAFGGV	0.7335 ± 0.0045
PLPCFVLRLPVF	0.402 ± 0.02
PLPSEKAPTLLL	0.583 ± 0.15
PLPSFLYFILLR	0.44 ± 0.079
PLRKYLRHLLSL	0.218 ± 0.055
PLRRPPPRPPWP	0.494 ± 0.036
PLSPTNLSRLLS	0.339 ± 0.015
PPGSPPGSLRPT	0.78 ± 0.025
PPHRTLLQLRTN	0.343 ± 0.18
PPPAPPLSMPAP	0.0173 ± 0.0038
PPPLCSTCIRCC	0.293 ± 0.0083
PPQDQAPVGVND	0.474 ± 0.064
PPRCLLPPPSRS	0.79 ± 0.015
PPRDPGGLFTPF	0.71756 ± 0.00059
PPSPAPLPDSLP	0.7006 ± 0.0066
PPSPPLLFHFPP	0.586 ± 0.15
PPTLLPPLHPAP	0.64 ± 0.23
